This note sets out measurements from the DeepSol protein solubility set.

The data set can be described thus: soluble on expression in E. coli; label from the status in PepcDB or PDB records.
With “MGSDKIHHHHHHMKIQNTEWGYIEWKHTYDENNPKQAMNIYIAVTMPGKKHFNHVHYGQEQMIYILEGEGLYIINGVWKPFYQGMIFYIESGSTHETINTGDREIKELIVSNNVDDVGESEIIDINPNNYLKKTLINYSESTLNLYAAVESIRGQFIDPFKIPLIIYDDSWNIVLKNPYFPLFCFEKCNPMKFPQNCDCMNQKSSNQFVCEYGITIYNIPILYKSNSIGVIRGGYVLLSDLNLDTEHNNLYDIPEGAARSIKRLLKQISKNIINFCSFNDIRKDLQEKEKTIARTYHYGEQLEMNLKVAQDMVTNLRINHHFLFNTLNSMASIALDDGSYDLYSAIIDLSRMFRYTMRSDLRFVELESEILYIKNYLNLQKLRYGDALKVKYLIPEKLYNLSVPFNFIQPIVENAFTHGFRDIDTEKRIEIIARLDSQYAIIEIHNNGTILDGNNIDKIKAGIRSNNGHGLSLIYTKFTSAYGNNFDMDIKSSDNEGTYIMIKIPIENYKEYV”, the “soluble on expression in E. coli” value is reported as “not soluble”.
For “YTVEPVQDGERSVTLRRAGGTPLVAAMYHLPAAGSPDFVGLDLAATILADTPSGRLYHALVPTKLASGVFGFTMDQLDPGLAMFGAQLQPGMDQDKALQTLTATLESLSSKPFSQEELERARSKWLTAWQQTYADPEKVGVALSEAIASGDWRLFFLQRDRVRDAKLDDVQRAAVAYLVRSNRTEGRYIPTEKPQRAPLAQR”, the “soluble on expression in E. coli” value was “not soluble”.
Then “MGSDKIHHHHHHMRNMQEKGVSEKEILEELKKYRSLDLKYEDGNIFGSMCSNVLPITRKIVDIFLETNLGDPGLFKGTKLLEEKAVALLGSLLNNKDAYGHIVSGGTEANLMALRCIKNIWREKRRKGLSKNEHPKIIVPITAHFSFEKGREMMDLEYIYAPIKEDYTIDEKFVKDAVEDYDVDGIIGIAGTTELGTIDNIEELSKIAKENNIYIHVDAAFGGLVIPFLDDKYKKKGVNYKFDFSLGVDSITIDPHKMGHCPIPSGGILFKDIGYKRYLDVDAPYLTETRQATILGTRVGFGGACTYAVLRYLGREGQRKIVNECMENTLYLYKKLKENNFKPVIEPILNIVAIEDEDYKEVCKKLRDRGIYVSVCNCVKALRIVVMPHIKREHIDNFIEILNSIKRD”, with “not soluble”; and “MAMLELLYTALLYLIQPLIWIRLWVRGRKAPAYRKRWGERYGFYRHPLKPGGIMLHSVSVGETLAAIPLVRALRHRYPDLPITVTTMTPTGSERVQSAFGKDVQHVYLPYDLPDALNRFLNKVDPKLVLIMETELWPNLIAALHKRKIPLVIANARLSARSAAGYAKLGKFVRRLLRRITLIAAQNEEDGARFVALGAKNNQVTVTGSLKFDISVTPQLAAKAVTLRRQWAPHRPVWIATSTHEGEESVVIAAHQALLQQFPNLLLILVPRHPERFPDAINLVRQAGLSYITRSSGEVPSTSTQVVVGDTMGELMLLYGIADLAFVGGSLVERGGHNPLEAAAHAIPVLMGPHTFNFKDICARLEQASGLITVTDATTLAKEVSSLLTDAVYRSFYGRHAVEVLYQNQGALQRLLQLLEPYLPPKTHLEHHHHHH”, with “not soluble”; and “MTQTNNPLHGITLETIITQLVEHYGWEELGARIKIRCFTEAPSIKSSLRFLRKTDWAREKVEYLYLKTNKLPLPAAKSIQAPAKEPSKKSAPKPNSKPTQTKVVTPTPAVEGQVNSHIWGKRDLEHHHHHH”, with “soluble”.
In the case of “MAHHHHHHMGHKNSSNISSAPVPPPFYVLPGVPVPSLKPSNLDFSATSGKPILCAGWIAPHGNRSWSRRNVVYSSEIEIPVPQPCQVRVKIYAAGVNPADAHRTAVLPSSPEVGTSGKSRRASRHPRPPFKFPYVVGIEGAGVVESVGWAAASSGERDGSAGALTSANARDIRVGDRVAFLADLMQESGGTFCQYAVVDSDVLWKLPEVVCAPPPSTGGLVPGRLIDFVEAASLPAAAATAYIALFDKLRIETQRAIFISGASGGVGSAAVQLAHYFGLYVIASCSTPNVRYVQSLGADYVVDYTRADVVEEILTYTDNYGVDYLLECAGAFMAEAHSETVRFGGALCVLTGLLSPRSDIVFRRQLSVHYVCLGMQHQDPLARTQLQPLGELVMQLYIQGAFSVNAEQVPFVQAADALDLVASGHGRGKIVLTNFHTNEEKEERLRRRHVQLYEKAQHQYQVEETQKAAGAAAATAASEAASREAG” it was “not soluble”; in that of “MDVSFEFEHYQVRLIKSSDAVTIANYFMRNRHHLAPWEPKRSHAFFTPEGWKQRLLQLVELHKHNLAFYFVVVDKNEHKIIGTVSYSNITRFPFHAGHVGYSLDSEYQGKGIMRRAVNVTIDWMFKAQNLHRIMAAYIPRNEKSAKVLAALGFVKEGEAKKYLYINGAWEDHILTSKINDDWKP”, “soluble”.
